Laboratory results: the supplement of paper PMC10567573
± gives the standard deviation.

Experiment: protein stability index of a GFP-peptide fusion (GPS, HEK-293T) (PSI 1-6); higher = more stable
[1] = treatment: DMSO, c terminus: a fixed tail appended
[2] = treatment: MLN4924 1 uM, 8 h, c terminus: a fixed tail appended
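Note: 24-mer peptide tiles fused after GFP, lentivirally expressed, FACS-sorted into six equal bins by GFP/DsRed ratio, decoded by Illumina sequencing, PSI is the read-weighted mean bin number.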

Row | Sequence | protein stability index [1] | protein stability index [2] | protein stability index (treatment: DMSO, c terminus: native) | protein stability index (treatment: MLN4924 1 uM, 8 h, c terminus: native)
1 | SVSRFFADSGADPKGEPGSKQSPP [FBF1] | 5.09 ± 0.2 | 5.14 ± 0.14 |  | 
2 | APDFVGDILWEHLEQMIKENQEKT [ETS2] | 4.44 ± 0.13 | 4.58 ± 0.14 |  | 
3 | MQNGAGASRTSTIFLNGNRERPLN [TNXB] | 3.7 ± 0.49 | 4.06 ± 0.2 |  | 
4 | IAHDGQRIYVLGGGTSWTAYSLNK [KLHDC10] | 2.13 ± 0.38 | 2.1 ± 0.066 |  | 
5 | EGHSIVGFAMYYFTYDPWIGKLLY [SAT1] | 3.07 ± 0.16 | 3.02 ± 0.99 |  | 
6 | WKYFKGNFYYFSLIPKTWYSAEQF [CD207] | 3.12 ± 0.47 | 2.78 ± 0.71 |  | 
7 | IIRNVGKYREAARLEINVLKKIKE [CLK3] | 2.68 ± 0.51 | 2.33 ± 0.27 |  | 
8 | KDGVADSTVISSMPCLLMELRRDS [C18orf25] | 3.25 ± 0.15 | 3.42 ± 0.35 |  | 
9 | VTSIPSVSDSLTWREFHYIQSKLG [STEAP1] | 2.66 ± 0.24 | 2.69 ± 0.18 |  | 
10 | LYIQSHYQLELQCCIDWTHVTDPL [SMG5] | 3.31 ± 0.46 | 3.06 ± 0.42 |  | 
11 | YSHLAYNNYRLGGNPSTNSRVTAS [SMARCE1] | 3.3 ± 0.34 | 3.35 ± 0.18 |  | 
12 | KAVLENALRNFACLTTGDVIAINY [UFD1] | 2.94 ± 1.7 | 2.3 ± 1 |  | 
13 | RLSSRYRYGQLIEINSHSLFSKWF [TRIP13] | 2.12 ± 0.28 | 2.04 ± 0.38 |  | 
14 | LHEEEHVLLMAICIVSPDRPGVQD [VDR] | 2.44 ± 0.29 | 2.24 ± 0.25 |  | 
15 | LRPPHTSRGTSQTPNASSPGNPTA [LPCAT4] | 4.76 ± 0.17 | 4.85 ± 0.21 |  | 
16 | IKPNEILPPEKGREVAKELGIPYY [RHOBTB2] | 3.73 ± 0.14 | 3.79 ± 0.12 |  | 
17 | YWPLEKDSRIRFGFLTVTNLGVEN [PTPN9] | 2.47 ± 0.36 | 2.43 ± 0.4 |  | 
18 | LSANLHGGAVVANYPYDKSFEHRV [CPN1] | 3.46 ± 0.27 | 3.5 ± 0.28 |  | 
19 | FAVLHWKPPQNPVDTYDVQVTAPG [TNXB] | 2.76 ± 0.25 | 2.68 ± 0.46 |  | 
20 | SHSASATGNVCIEEIDVDGKFIRL [LMNB1] | 3.14 ± 0.22 | 3.48 ± 0.23 |  | 
21 | VCEHLNLLEKDYFGLTYRDAENQK [EPB41L3] | 4.91 ± 0.31 | 4.69 ± 0.23 |  | 
22 | LEGEEENELTLNEKNFFPEYNYDW [CHGB] | 4.21 ± 0.37 | 4.46 ± 0.28 |  | 
23 | ATKFKQLYRSRMNSLEMTPAVRQR [HMOX1] | 3.32 ± 0.21 | 3.56 ± 0.27 |  | 

Row | Sequence | protein stability index [1] | protein stability index [2] | protein stability index (treatment: DMSO, c terminus: native) | protein stability index (treatment: MLN4924 1 uM, 8 h, c terminus: native)
24 | YSIGRSVEGRHLYVLEFSDHPGIH [CPN1] | 2.07 ± 0.23 | 2.07 ± 0.12 |  | 
25 | HSKGHKSSRQEKRPLCAQGDWHSP [ELOA2] | 3.93 ± 0.28 | 4.23 ± 0.37 |  | 
26 | PTARHFQEHPRQQLATSSFLLFLL [MOSPD3] | 2.2 ± 0.24 | 2.23 ± 0.4 |  | 
27 | TLQELLARDTVQVELIPEKKGLFL [SNX8] | 2.47 ± 0.62 | 2.41 ± 0.43 |  | 
28 | SQWDVLSGDCDQRFRFPSPILKVQ [RBBP5] | 3.34 ± 0.14 | 3.38 ± 0.32 |  | 
29 | VIEEAKTAFLLNIQLFEELQELLT [HMOX1] | 2.08 ± 0.32 | 2.38 ± 0.2 |  | 
30 | KKQAGRPKGSKGKEKDSPFKPKLY [RBBP5] | 3.74 ± 0.26 | 3.91 ± 0.28 |  | 
31 | VNGDGSRENGNNSSDKVRGIETLE [PHTF1] | 5.24 ± 0.32 | 5.22 ± 0.28 |  | 
32 | ELLVAHAYTRYLGDLSGGQVLKKI [HMOX1] | 2.23 ± 0.86 | 2.32 ± 0.3 |  | 
33 | CHHLPVIRQLATSGRFIVIIPRTV [SMG5] | 2.52 ± 0.6 | 2.56 ± 0.33 |  | 
34 | GSAGRLLAVGTDLYGQRNSAPEQE [GFOD1] | 4.61 ± 0.44 | 4.79 ± 0.21 |  | 
35 | PVEYRSDVNSFVTECEPSELFQLQ [CDS1] | 4.5 ± 0.36 | 4.55 ± 0.18 |  | 
36 | LIKTIETRNGEVVTESQKEQRSEL [PRPH] | 4.91 ± 0.52 | 4.67 ± 0.53 |  | 
37 | LPWQGLKADTLKERYQKIGDTKRA [CSNK1G3] | 3.77 ± 0.11 | 3.76 ± 0.41 |  | 
38 | CISKNEWIQFNHPYTEKPRLWHTA [KLHDC2] | 2.43 ± 0.48 | 2.36 ± 0.3 |  | 
39 | VAEQVGIDKGDIPDLTQAPSSLME [SNAP91] | 4.97 ± 0.38 | 5.03 ± 0.23 |  | 
40 | DPNTRPVGEKNCTGPPCDRQWTVS [ADAMTSL2] | 4.89 ± 0.15 | 4.86 ± 0.32 |  | 
41 | DETLRSGELLNMIVAVIDSAQLQE [INTS3] | 2.84 ± 0.18 | 3.06 ± 0.39 |  | 
42 | DYCKGGYHPVKIGDLFNGRYHVIR [SRPK2] | 1.99 ± 0.32 | 2.23 ± 0.25 |  | 
43 | FELQRLEFDLSPLNLDIGQVYKET [AASDHPPT] | 2.42 ± 0.092 | 2.29 ± 0.62 |  | 
44 | RNHMENGGDHRYVNNYTNSFGGEW [TRIM29] | 3.13 ± 0.16 | 3.15 ± 0.2 |  | 
45 | ASKWGMSYDELCFLEQRPQSPTLE [EDARADD] | 3.67 ± 0.12 | 3.81 ± 0.062 |  | 
46 | VDGRLTYPTCGIGYPVSSAFAFQN [SASS6] | 2.37 ± 0.23 | 2.38 ± 0.37 |  | 

Row | Sequence | protein stability index [1] | protein stability index [2] | protein stability index (treatment: DMSO, c terminus: native) | protein stability index (treatment: MLN4924 1 uM, 8 h, c terminus: native)
47 | EETKKLANKYLVEDVLLLNFEEMR [KLHL14] | 3.23 ± 0.23 | 3.18 ± 0.27 |  | 
48 | GTLGSCSSSSECLEDSTMGSVADT [PLK2] | 5.36 ± 0.11 | 5.28 ± 0.15 |  | 
49 | SSYYKFKLTREVLSLFVQKLGNLM [ZER1] | 2.83 ± 0.45 | 2.6 ± 0.36 |  | 
50 | LKVKCLNNLAASQLKLDHYRAALR [FKBP8] | 2.28 ± 0.31 | 2.19 ± 0.47 |  | 
51 | KIPGTGALASAAAAVSGSKAKAE [RTN2] |  |  | 5.34 ± 0.14 | 5.32 ± 0.14
52 | LLEKVPCTLEQDHFKKQTIYRFLK [FEM1C] | 2.38 ± 0.83 | 2.31 ± 0.23 |  | 
53 | DLMETTQYMNEGELRVLADTYDSV [HDAC6] | 2.69 ± 0.52 | 3.58 ± 0.51 |  | 
54 | VERAAAAAAAAAGGDAGHAPFPPP [C6orf223] | 5.08 ± 0.65 | 5.22 ± 0.4 |  | 
55 | AAAVLFRMSEDKPQDYKKRLSVEL [CTNNB1] | 2.62 ± 0.31 | 2.25 ± 0.27 |  | 
56 | TMLAGHYPFQDSEPVLLFGKIRRG [TRIB3] | 2.56 ± 0.16 | 2.77 ± 0.25 |  | 
57 | GDLIEITDAKKREALYAQDPSTGC [KMT5A] | 5 ± 0.24 | 4.86 ± 0.33 |  | 
58 | ILRCWKCRKCIASSGCFMEYLENQ [RNF180] | 2.36 ± 0.4 | 2.43 ± 0.46 |  | 
59 | QQYRQDQRDGSKSEDELDQASTPT [CCND2] | 5.45 ± 0.2 | 5.39 ± 0.12 |  | 
60 | NHEEDAGVRCNTPAMGLQKKLRLN [LOXL2] | 4.64 ± 0.12 | 4.5 ± 0.36 |  | 
61 | QMQDDEQKTRLLEDSVSRLEKEIE [PALM] | 5.11 ± 0.15 | 4.97 ± 0.1 |  | 
62 | KRTYWPDLDAKIREALVLRSVRVR [PLD5] | 2.4 ± 0.36 | 2.77 ± 0.38 |  | 
63 | LPYPKDVYSVSVDQKERCIIVRTT [DPCD] | 2.21 ± 0.22 | 2.18 ± 0.22 |  | 
64 | KETEERTDGERVAEVAPEERENVA [SDE2] | 5.64 ± 0.17 | 5.33 ± 0.42 |  | 
65 | ADDPDDGPVPGTPGLPGSTGNPKS [SPNS1] | 5.47 ± 0.39 | 5.49 ± 0.35 |  | 
66 | SGREHNFTRPNEKGEYEVAEGIGS [BTBD10] | 5.11 ± 0.25 | 4.99 ± 0.33 |  | 
67 | RVRVELQEQNGRLQAELAAQEALR [LRRC45] | 4.58 ± 0.079 | 3.98 ± 0.55 |  | 
68 | RTRDYKKTSLAPYVKVFEHFLENL [PRIM1] | 2.11 ± 0.4 | 2.48 ± 0.54 |  | 
69 | FWNIKQMWDTKTLGLRQHHCRKCG [WDFY1] | 2.64 ± 0.25 | 2.86 ± 0.49 |  | 

Row | Sequence | protein stability index [1] | protein stability index [2] | protein stability index (treatment: DMSO, c terminus: native) | protein stability index (treatment: MLN4924 1 uM, 8 h, c terminus: native)
70 | QQLHQLPRGRLDLATQSLTVETCR [LRRC45] | 4.04 ± 0.23 | 3.9 ± 0.32 |  | 
71 | KLIDRLEKKDLKLEPPEEEIIEGN [NECAB1] | 4.88 ± 0.32 | 4.8 ± 0.19 |  | 
72 | FTGNFFYNYMMGIEFNPRIGKWFD [DHCR7] | 2.59 ± 0.57 | 2.21 ± 0.43 |  | 
73 | NLITTVTPEKKAEEERDEEEDKRR [EPB41L3] | 5.61 ± 0.35 | 5.56 ± 0.2 |  | 
74 | VPVHSFASLNIKTTVPEVEPPQDS [PRPH] | 4.97 ± 0.2 | 4.99 ± 0.073 |  | 
75 | VPYHIARIPYTKSQTEAHYSCQSK [P2RY14] | 3.47 ± 0.17 | 3.53 ± 0.36 |  | 
76 | APPLPDSPQPLASSPGPWGLEALA [FCHO1] | 4.43 ± 0.16 | 3.99 ± 0.18 |  | 
77 | TQPPDESCSQNLLITQQIIPVLYC [P2RY14] | 2.28 ± 0.25 | 2.23 ± 0.22 |  | 
78 | EVGMVKCGSRRERCGYRLVRRQRS [ESR2] | 3.19 ± 0.35 | 3.27 ± 0.43 |  | 
79 | EWELLDPTQKALYNDVMQENYETV [ZNF75A] | 4.77 ± 0.086 | 4.98 ± 0.19 |  | 
80 | MLLQHQICKEVQAEQEPTRKLFEV [SPAG8] | 2.79 ± 0.26 | 2.78 ± 0.23 |  | 
81 | KTRRKTSARDASPTPSTDAEYPAN [NCK2] | 5.31 ± 0.21 | 5.45 ± 0.17 |  | 
82 | EQKVLSRLVESLSTQIRALTEQQE [RASAL3] | 2.65 ± 0.046 | 2.76 ± 0.19 |  | 
83 | VRFLEQQNAALRGELSQARGQEPA [PRPH] | 4.57 ± 0.27 | 4.41 ± 0.18 |  | 
84 | SRRSMAHILKARKVLTEPEVRYYL [PLK2] | 2.48 ± 0.35 | 2.43 ± 0.15 |  | 
85 | VQDKTPLYSQLLQAYKWSNKLQYH [MED27] | 2.18 ± 0.27 | 2.19 ± 0.25 |  | 
86 | QIEGLNEELAYLKKNHEEEMKEFS [KRT15] | 5.25 ± 0.33 | 5.3 ± 0.19 |  | 
87 | LGCALLAAHAVVLCALPVHVAVEH [SOAT2] | 3.43 ± 0.35 | 3.09 ± 0.51 |  | 
88 | FSLLEELKEGMLMKIKQDRASRTY [FSD1] | 2.63 ± 0.42 | 2.66 ± 0.14 |  | 
89 | SPEIMASVLNGKFANLIKEFVIID [CDC25A] | 2.47 ± 0.29 | 2.23 ± 0.19 |  | 
